Results reported in article PMC5027287, “Real-time observation of DNA recognition and rejection by the RNA-guided endonuclease Cas9”.
Positions count from the first letter of the chain named.

B1: Cognate DNA + guide RNA (mixed)
DNA 1: AACGCAACGTCGTCAGCTGTCTGCACAGCAGAAATCTCTGCTGACGCATAAAGATGAGACGCTGGAGTACAAACGTCAGCTTGCT
DNA 2: AGCAAGCTGACGTTTGTACTCCAGCGTCTCATCTTTATGCGTCAGCAGAGATTTCTGCTGTGCAGACAGCTGACGACGTTGCG
RNA 1: GACGCAUAAAGAUGAGACGCGUUUUAGAGCUAUGCUGUUUUG
RNA 2: GGACAGCAUAGCAAGUUAAAAUAAGGCUAGUCCGUUAUCAACUUGAAAAAGUGGCACCGAGUCGGUGCUUUUU
B2: 13-20mm (mixed)
DNA 1: B1 DNA 1 with G43C, A44T, C45G, G46C, C47G, A48T, T49A, A50T
DNA 2: B1 DNA 2 with T36A, A37T, T38A, G39C, C40G, G41C, T42A, C43G
RNA 1: B1 RNA 1
RNA 2: B1 RNA 2
B3: 12-20mm (mixed)
DNA 1: B1 DNA 1 with G43C, A44T, C45G, G46C, C47G, A48T, T49A, A50T, A51T
DNA 2: B1 DNA 2 with T35A, T36A, A37T, T38A, G39C, C40G, G41C, T42A, C43G
RNA 1: B1 RNA 1
RNA 2: B1 RNA 2
B4: 10-20mm (mixed)
DNA 1: AACGCAACGTCGTCAGCTGTCTGCACAGCAGAAATCTCTGCTCTGCGTATTTCATGAGACGCTGGAGTACAAACGTCAGCTTGCT
DNA 2: AGCAAGCTGACGTTTGTACTCCAGCGTCTCATGAAATACGCAGAGCAGAGATTTCTGCTGTGCAGACAGCTGACGACGTTGCG
RNA 1: B1 RNA 1
RNA 2: B1 RNA 2
B5: 9-20mm (mixed)
DNA 1: B4 DNA 1 with A54T
DNA 2: B4 DNA 2 with T32A
RNA 1: B1 RNA 1
RNA 2: B1 RNA 2
B6: 17-20mm (mixed)
DNA 1: B1 DNA 1 with G43C, A44T, C45G, G46C
DNA 2: B1 DNA 2 with C40G, G41C, T42A, C43G
RNA 1: B1 RNA 1
RNA 2: B1 RNA 2
B7: 11-20mm (mixed)
DNA 1: B4 DNA 1 with C53G
DNA 2: B4 DNA 2 with G33C
RNA 1: B1 RNA 1
RNA 2: B1 RNA 2

Experiments:
Cas9 (SpCas9) [1] = molecular target: T1, Cas9 (SpCas9) (Streptococcus pyogenes, UniProt Q99ZW2 1-1368); experiment: smFRET; 20 nM Cas9-RNA; koff <0.006 s-1, lifetime >3 min (photobleaching limit); Immobilized biotin/Cy3 DNA, 20 nM Cas9-RNA (Cy5 crRNA), 0.1 s frames; imaging buffer, pH and temperature not in the material; kon ~6e6 M-1 s-1; details: protein: recombinant, tags: His10-MBP removed by TEV, label: Cy3 (DNA), biotin (DNA), DNA duplex 1:2, 5' overhang 2 nt on strand 1, crRNA 3 : tracrRNA 4, guide pairs strand 2
Cas9 (SpCas9) [2] = molecular target: T1, Cas9 (SpCas9); experiment: smFRET; 20 nM; bound fraction as cognate; Immobilized biotin/Cy3 DNA, 20 nM Cas9-RNA (Cy5 crRNA), 0.1 s frames; imaging buffer, pH and temperature not in the material; kon ~6e6 M-1 s-1; details: protein: recombinant, tags: His10-MBP removed by TEV, label: Cy3, biotin, as N1
Cas9 (SpCas9) [3] = molecular target: T1, Cas9 (SpCas9); experiment: smFRET; 20 nM; bound fraction as cognate; bound lifetime ~16 s; Immobilized biotin/Cy3 DNA, 20 nM Cas9-RNA (Cy5 crRNA), 0.1 s frames; imaging buffer, pH and temperature not in the material; kon ~6e6 M-1 s-1; details: protein: recombinant, tags: His10-MBP removed by TEV, label: Cy3, biotin, as N1

T1 sequence (Q99ZW2 whole entry): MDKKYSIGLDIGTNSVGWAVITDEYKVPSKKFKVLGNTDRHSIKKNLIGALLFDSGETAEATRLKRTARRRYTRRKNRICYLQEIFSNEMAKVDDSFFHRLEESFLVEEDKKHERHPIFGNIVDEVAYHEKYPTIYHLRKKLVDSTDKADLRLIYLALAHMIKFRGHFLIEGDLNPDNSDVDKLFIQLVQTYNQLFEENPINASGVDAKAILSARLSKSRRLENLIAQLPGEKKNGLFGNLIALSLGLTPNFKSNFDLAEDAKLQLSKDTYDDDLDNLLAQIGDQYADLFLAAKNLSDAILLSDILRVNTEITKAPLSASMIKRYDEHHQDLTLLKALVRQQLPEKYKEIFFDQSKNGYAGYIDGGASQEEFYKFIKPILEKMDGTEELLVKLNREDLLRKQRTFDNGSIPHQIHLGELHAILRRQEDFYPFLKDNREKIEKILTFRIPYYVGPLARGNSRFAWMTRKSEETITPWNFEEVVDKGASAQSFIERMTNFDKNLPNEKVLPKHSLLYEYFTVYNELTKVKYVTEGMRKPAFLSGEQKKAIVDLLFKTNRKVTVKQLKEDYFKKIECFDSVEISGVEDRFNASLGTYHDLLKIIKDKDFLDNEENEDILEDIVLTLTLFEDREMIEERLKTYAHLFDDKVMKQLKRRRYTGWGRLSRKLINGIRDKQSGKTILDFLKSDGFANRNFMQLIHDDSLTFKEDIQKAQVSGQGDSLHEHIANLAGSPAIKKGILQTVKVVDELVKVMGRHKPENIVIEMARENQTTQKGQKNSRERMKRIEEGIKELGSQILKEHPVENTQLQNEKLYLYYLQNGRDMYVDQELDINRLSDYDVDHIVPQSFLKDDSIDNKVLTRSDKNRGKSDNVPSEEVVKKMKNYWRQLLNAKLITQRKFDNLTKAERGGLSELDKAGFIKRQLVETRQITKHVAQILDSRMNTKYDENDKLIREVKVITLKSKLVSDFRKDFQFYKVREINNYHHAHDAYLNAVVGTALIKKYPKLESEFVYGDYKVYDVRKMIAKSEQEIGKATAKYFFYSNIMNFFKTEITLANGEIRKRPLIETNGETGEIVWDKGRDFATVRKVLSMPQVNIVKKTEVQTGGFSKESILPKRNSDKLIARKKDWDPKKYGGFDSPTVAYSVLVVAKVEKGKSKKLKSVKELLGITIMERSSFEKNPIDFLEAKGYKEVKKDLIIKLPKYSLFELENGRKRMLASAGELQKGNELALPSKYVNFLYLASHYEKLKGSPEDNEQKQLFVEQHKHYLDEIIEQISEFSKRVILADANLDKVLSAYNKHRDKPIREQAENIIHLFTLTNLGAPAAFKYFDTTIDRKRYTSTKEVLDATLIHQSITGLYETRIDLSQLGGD

Row | Binder | binding result (Cas9 (SpCas9) [2]) | also measured
1 | B1 | – | binding result (Cas9 (SpCas9) [1]): binds
2 | B2 | binds | –
3 | B3 | binds | –
4 | B4 | binds | –
5 | B5 | – | binding result (Cas9 (SpCas9) [3]): binds
6 | B6 | binds | –
7 | B7 | binds | –
